These results are taken from the supplement of paper PMC10567573.

± gives the standard deviation.

The data set is described as follows: protein stability index of a GFP-peptide fusion (GPS, HEK-293T) (PSI 1-6); higher = more stable. To be noted: c terminus: a fixed tail appended.
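Further: 24-mer peptide tiles fused after GFP, lentivirally expressed, FACS-sorted into six equal bins by GFP/DsRed ratio, decoded by Illumina sequencing, PSI is the read-weighted mean bin number.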

DEGASAGQGPKPEADSQEQGHPQT [GAGE1] had a protein stability index (treatment: DMSO) of 5.71 ± 0.1 and a protein stability index (treatment: MLN4924 1 uM, 8 h) of 5.48 ± 0.37.
For SCQEVLRKGCLRFQLPERGSRLCL [DFFB], in that order: 2.27 ± 0.48 and 2.4 ± 0.29.
The like results for QAQGQLRELLDRAMREAIQSYPSQ [SOAT2] were, in that order, 3.01 ± 0.31 and 3.11 ± 0.31.
For ELVKSGVLGADGVCMTFMKQIAGG [INTS3], in that order: 2.27 ± 0.52 and 2.49 ± 0.068.
As for PNSTKNQSLPKASPVTTSPTAATT [LCOR], the protein stability index is, setting by setting: (treatment: DMSO) 4.91 ± 0.23; (treatment: MLN4924 1 uM, 8 h) 5.03 ± 0.26.
With DIWSTACMAFELATGDYLFEPHSG [SRPK2], the protein stability index (treatment: DMSO) is 3.2 ± 0.24 and the protein stability index (treatment: MLN4924 1 uM, 8 h) was determined as 3.39 ± 0.47.
The sequence QNPGKFDELDMSPGDPKWLDVIER [TBC1D10A] displayed a protein stability index (treatment: DMSO) of 4.27 ± 0.081 and a protein stability index (treatment: MLN4924 1 uM, 8 h) of 4.49 ± 0.28.
For EASRLNIERMKQIYQQLSRYRGLG [CRY1], in that order: 2.48 ± 0.26 and 2.37 ± 0.3.
For SDSAPRNKISRFQAPISAPEYTYG [MFF], in that order: 3.59 ± 0.71 and 3.56 ± 0.21.
For ECQLTHSHPACPLEFAYYFRPGHL [ZSWIM9], the protein stability index runs as follows: (treatment: DMSO) 2.57 ± 0.036; (treatment: MLN4924 1 uM, 8 h) 2.59 ± 0.47.
For RVWLKRDSGQYWPSIYHTMASPCS [WDFY1], in that order: 2.06 ± 0.27 and 2.16 ± 0.21.
On to STSRHVMAPVMAHVDPEEPWSPCS [ADAMTS4], for which the protein stability index runs as follows: (treatment: DMSO) 4.32 ± 0.14; (treatment: MLN4924 1 uM, 8 h) 4.41 ± 0.17.
The like results for RKLFEVESVTHHDYRMELAQAGTP [SPAG8] were, in that order, 3.64 ± 0.33 and 3.57 ± 0.21.
For CILVEMHTGEPLFSGSNEVDQMNR [DYRK1B], the protein stability index reads like this: (treatment: DMSO) 2.58 ± 0.07; (treatment: MLN4924 1 uM, 8 h) 2.58 ± 0.22.
The like results for RQITSPVSGINGDIRAKKIASIAD [HNF4A] were, in that order, 4.1 ± 0.25 and 4.13 ± 0.2.
For ELQGFWMDIGQPKDFLTGMCLFLQ [GMPPB], in that order: 2.19 ± 0.25 and 2.01 ± 0.35.
For KKVLKKMLKFLAKGEVPKGSCEDE [ATE1], in that order: 2.11 ± 0.25 and 2.25 ± 0.47.
In the case of EEAGSQENHPQESKGQPRSQEESE [CHGB], the protein stability index runs as follows: (treatment: DMSO) 5.57 ± 0.25; (treatment: MLN4924 1 uM, 8 h) 5.64 ± 0.17.
For VVLCFSIANPNSLNHVKSMWYPEI [RHOBTB1], in that order: 4.05 ± 0.91 and 3.6 ± 0.21.
The like results for WLQKLCCPCCFGRDCLVLNQGYLS [PI4K2A] were, in that order, 2.4 ± 0.45 and 2 ± 0.24.
SVAGWSLFSLNVISLTCVSVAFAV [SLC19A2]: the protein stability index by setting is: (treatment: DMSO) 2.92 ± 0.15; (treatment: MLN4924 1 uM, 8 h) 3.21 ± 0.27.
The like results for IKQIQQLFEEILSNSRQLKWLSCG [FBXO33] were, in that order, 3.57 ± 1.6 and 1.94 ± 0.58.
In the case of NSFRLLFDVVVILTCSLSFLLCAR [MCOLN1], the protein stability index runs as follows: (treatment: DMSO) 3.21 ± 0.17; (treatment: MLN4924 1 uM, 8 h) 3.24 ± 0.24.
In turn, IRMIQEEKESTELRAEEIETRVTS [PPFIA4] yielded a protein stability index (treatment: DMSO) of 5.22 ± 0.33 and a protein stability index (treatment: MLN4924 1 uM, 8 h) of 5.21 ± 0.38.
In the case of KKKCLEWLLNNLMTHQNVELFKEL [GMCL1], the protein stability index (treatment: DMSO) is 2.54 ± 0.17 and the protein stability index (treatment: MLN4924 1 uM, 8 h) was found to be 2.83 ± 0.78.
The like results for LYAVGGQDGVSCLNIVERYDPKEN [KLHL20] were, in that order, 3.89 ± 0.31 and 3.96 ± 0.27.
For LREMCALSFQEELLYWGIAEDHLD [KCNG1], in that order: 2.27 ± 0.27 and 2.26 ± 0.22.
The like results for LREINFKIVEFNPMVLKGKIRPDS [GLT8D2] were, in that order, 2.39 ± 0.34 and 2.41 ± 0.41.
For PPYLPLAVPEDLADRLVRVHGDPA [FUT8], the protein stability index is 4.22 ± 0.12 (treatment: DMSO) and 4.31 ± 0.28 (treatment: MLN4924 1 uM, 8 h).
In turn, RRLLEGEDAHLTQYKKEPVTTRQV [KRT17] returned a protein stability index (treatment: DMSO) of 4.56 ± 0.25 and a protein stability index (treatment: MLN4924 1 uM, 8 h) of 4.66 ± 0.18.
The like results for CMVCKKKIGNSAFARYPNGVVVHY [VPS39] were, in that order, 2.37 ± 0.17 and 2.51 ± 0.41.
In turn, QNCTDEGEREAIQKSVTRSCLLEE [POP5] registered a protein stability index (treatment: DMSO) of 5.17 ± 0.3 and a protein stability index (treatment: MLN4924 1 uM, 8 h) of 5.3 ± 0.33.
Turning to IDEYCVQQLKEFDGKSLVSVTKEG [HSP90AB1], the protein stability index is, setting by setting: (treatment: DMSO) 5.19 ± 0.25; (treatment: MLN4924 1 uM, 8 h) 4.99 ± 0.14.
For the sequence ILVLTRPVTRNERHSYQVYRQPIP [NET1], the protein stability index runs as follows: (treatment: DMSO) 2.33 ± 0.51; (treatment: MLN4924 1 uM, 8 h) 2.11 ± 0.38.
For CFSVSMLAGPNDRSDVEKGGKIIM [UFD1], in that order: 2.92 ± 0.48 and 3.2 ± 0.52.
The like results for TTALLHYQLPQMPDVVVRSFMTWL [MED27] were, in that order, 2.59 ± 0.32 and 2.62 ± 0.3.
